Patent publication US20200095340A1

molecular target: biotinylated human DLL3 protein expressed as a human IgG1 fusion protein (human) (UniProt Q9NYJ7); assay: Octet BLI; biotinylated huDLL3-IgG1 fusion on streptavidin tips; single 50 nM; conditioned medium
Sequence (Q9NYJ7 other isoform, or with tags, fused parts or gaps): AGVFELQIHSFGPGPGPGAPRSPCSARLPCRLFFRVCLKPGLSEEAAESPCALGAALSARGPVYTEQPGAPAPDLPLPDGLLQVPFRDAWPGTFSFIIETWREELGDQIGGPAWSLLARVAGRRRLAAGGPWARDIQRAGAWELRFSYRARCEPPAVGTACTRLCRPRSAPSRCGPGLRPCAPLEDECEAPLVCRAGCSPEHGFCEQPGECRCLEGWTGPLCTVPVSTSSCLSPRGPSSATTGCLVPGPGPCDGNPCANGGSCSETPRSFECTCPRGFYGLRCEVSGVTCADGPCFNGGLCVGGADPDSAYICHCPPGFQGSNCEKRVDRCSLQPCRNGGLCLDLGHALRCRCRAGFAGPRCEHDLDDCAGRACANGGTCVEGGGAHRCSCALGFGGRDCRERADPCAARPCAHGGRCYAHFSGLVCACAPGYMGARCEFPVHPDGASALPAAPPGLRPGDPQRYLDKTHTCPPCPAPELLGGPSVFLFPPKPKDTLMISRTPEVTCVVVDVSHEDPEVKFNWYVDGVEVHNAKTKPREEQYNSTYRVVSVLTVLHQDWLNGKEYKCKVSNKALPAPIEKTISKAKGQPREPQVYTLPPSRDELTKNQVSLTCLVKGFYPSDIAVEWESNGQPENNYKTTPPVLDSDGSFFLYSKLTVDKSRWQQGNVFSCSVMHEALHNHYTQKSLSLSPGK

Kd [nM]	Binder
7.9	anti-DLL3 trispecific protein 2H06 (protein, part only; not given: anti-CD3 fragment and anti-albumin domain, part only) chain, part: EVQLVESGGGLVQPGGSLTLSCVASGSTSTINAMGWYRRAPGKQRELVAGISSDGSKVYADSVKGRFTISRDNAKNSVYLQMNSLRAEDTAVYYCYYFRTASGSSMRYWGQGTLVTVSSGGGGSGGGSGGGGSGGGSHHHHHH
8	anti-DLL3 trispecific protein 2G09 (protein, part only; not given: CD3 fragment and albumin sdAb, part only) chain, part: EVQLVESGGGLVQPGGSLTLSCVASGSTSSINAMGWYRRAPGKQRELVAGVSSDGSKVYADSVKGRFTISRDNAKNSVYLQMNSLRAEDTAVYYCYYFRTVSGSSARYWGQGTLVTVSSGGGGSGGGSGGGGSGGGSHHHHHH
8	anti-DLL3 trispecific protein 2F07 (protein, part only; not given: anti-CD3 fragment and anti-albumin domain, part only) chain, part: EVQLVESGGGLVQPGGSLTLSCVASGSTSSINAVGWYRRAPGKQRELVAGISSDGSSVYADSVKGRFTISRDNAKNSVYLQMNSLRAEDTAVYYCYYFRTVSTSSMRYWGQGTLVTVSSGGGGSGGGSGGGGSGGGSHHHHHH
8.2	anti-DLL3 trispecific protein 2A03 (protein, part only; not given: CD3 fragment and albumin sdAb, part only) chain, part: EVQLVESGGGLVQPGGSLTLSCVASGTTSSINAMGWYRRAPGKQRELVAGISSDGSKVYGDSVKGRFTISRDNAKNSVYLQMNSLRAEDTAVYYCYYFRTVSGSAMRYWGQGTLVTVSSGGGGSGGGSGGGGSGGGSHHHHHH
8	anti-DLL3 trispecific protein 1B05 (protein, part only; not given: CD3 binder and albumin binder, part only) chain, part: EVQLVESGGGLVQPGGSLTLSCVASGSTSSINAMAWYRRAPGKQRELVAGISSDGSKVYADSVKGRFTISRDNAKNSVYLQMNSLRAEDTAVYYCYYYRTVSGSSMRYWGQGTLVTVSSGGGGSGGGSGGGGSGGGSHHHHHH
8.9	anti-DLL3 trispecific protein 2A05 (protein, part only; not given: CD3 fragment and albumin sdAb, part only) chain, part: EVQLVESGGGLVQPGGSLTLSCVASGRTSSINAMGWYRRAPGKQRELVAGISSDGSKVYNDSVKGRFTISRDNAKNSVYLQMNSLRAEDTAVYYCYYFRTVSGTSMRYWGQGTLVTVSSGGGGSGGGSGGGGSGGGSHHHHHH
8.5	anti-DLL3 trispecific protein 2E09 (protein, part only; not given: anti-CD3 and anti-albumin domains, part only) chain, part: EVQLVESGGGLVQPGGSLTLSCVASGSVSSINAMGWYRRAPGKQRELVAGISSDGSKVYASSAKGRFTISRDNAKNSVYLQMNSLRAEDTAVYYCYYFRTLSGSSMRYWGQGTLVTVSSGGGGSGGGSGGGGSGGGSHHHHHH
8.3	anti-DLL3 trispecific protein 1G07 (protein, part only; not given: anti-CD3 and anti-albumin domains, part only) chain, part: EVQLVESGGGLVQPGGSLTLSCVASGSTSSINAMGWYRRAPGKQRELVAGISSDGSKVVADSVKGRFTISRDNAKNSVYLQMNSLRAEDTAVYYCYYFRTYSGSSMRYWGQGTLVTVSSGGGGSGGGSGGGGSGGGSHHHHHH
8.3	anti-DLL3 trispecific protein 1C06 (protein, part only; not given: anti-CD3 and anti-albumin domains, part only) chain, part: EVQLVESGGGLVQPGGSLTLSCVASGSTSIINAMGWYRRAPGKQRELVAGISSDGSKVYEDSVKGRFTISRDNAKNSVYLQMNSLRAEDTAVYYCYYFRAVSGSSMRYWGQGTLVTVSSGGGGSGGGSGGGGSGGGSHHHHHH
8.5	anti-DLL3 trispecific protein 1C012 (protein, part only; not given: anti-CD3 and anti-albumin domains, part only) chain, part: EVQLVESGGGLVQPGGSLTLSCVASGITSSINAMGWYRRAPGKQRELVAGISSDGSKVYAGSVKGRFTISRDNAKNSVYLQMNSLRAEDTAVYYCYYFRTVRGSSMRYWGQGTLVTVSSGGGGSGGGSGGGGSGGGSHHHHHH
8.7	anti-DLL3 trispecific protein 1B03 (protein, part only; not given: anti-CD3 and anti-albumin domains, part only) chain, part: EVQLVESGGGLVQPGGSLTLSCVASGKTSSINAMAWYRRAPGKQRELVAGISSDGSKVYTDSVKGRFTISRDNAKNSVYLQMNSLRAEDTAVYYCYYFRTVSGSSARYWGQGTLVTVSSGGGGSGGGSGGGGSGGGSHHHHHH
8.6	anti-DLL3 trispecific protein 1A07 (protein, part only; not given: anti-CD3 fragment and anti-albumin domain, part only) chain, part: EVQLVESGGGLVQPGGSLTLSCVASGSISSINAMGWYRRAPGKQRELVAGISSDGSKVYADSVKGRFTISRDNAKNSVYLQMNSLRAEDTAVYYCYYFRMVSGSSMRYWGQGTLVTVSSGGGGSGGGSGGGGSGGGSHHHHHH
8.3	anti-DLL3 trispecific protein 2D05 (protein, part only; not given: anti-CD3 fragment and anti-albumin domain, part only) chain, part: EVQLVESGGGLVQPGGSLTLSCVASGSTSRINAMGWYRRAPGKQRELVAGISSDGSKVYADSVKGRFTISRDNAKNSVYLQMNSLRAEDTAVYYCYYFRTASGSSMRYWGQGTLVTVSSGGGGSGGGSGGGGSGGGSHHHHHH
8.1	anti-DLL3 trispecific protein 1E04 (protein, part only; not given: anti-CD3 fragment and anti-albumin sdAb, part only) chain, part: EVQLVESGGGLVQPGGSLTLSCVASGSTSRINGMGWYRRAPGKQRELPAGISSDGSKAYADSVKGRFTISRDNAKNSVYLQMNSLRAEDTAVYYCYYFRTASGTSMRYWGQGTLVTVSSGGGGSGGGSGGGGSGGGSHHHHHH
8.4	anti-DLL3 trispecific protein 1H010 (protein, part only; not given: anti-CD3 fragment and anti-albumin sdAb, part only) chain, part: EVQLVESGGGLVQPGGSLTLSCVASGSTRSINAMGWYRRAPGKQRELVAGISSDGSKVYNDSVKGRFTISRDNAKNSVYLQMNSLRAEDTAVYYCYYFRTVSGSSMRFWGQGTLVTVSSGGGGSGGGSGGGGSGGGSHHHHHH
8.9	anti-DLL3 trispecific protein 1B07 (protein, part only; not given: anti-CD3 and anti-albumin domains, part only) chain, part: EVQLVESGGGLVQPGGSLTLSCVASGSGSSINAMGWYRRAPGKQRELVAGISSDGSKVYSDSVKGRFTISRDNAKNSVYLQMNSLRAEDTAVYYCYYFRHVSGSSMRYWGQGTLVTVSSGGGGSGGGSGGGGSGGGSHHHHHH

Kd [nM]	Binder
8.9	anti-DLL3 trispecific protein 1F06 (protein, part only; not given: anti-CD3 and anti-albumin domains, part only) chain, part: EVQLVESGGGLVQPGGSLTLSCVASGTTSSINAMGWYRRAPGKQRELVAGISSDGSKVIADSVKGRFTISRDNAKNSVYLQMNSLRAEDTAVYYCYYFRTVLGSSMRYWGQGTLVTVSSGGGGSGGGSGGGGSGGGSHHHHHH
8.1	anti-DLL3 trispecific protein 1C04 (protein, part only; not given: anti-CD3 fragment and anti-albumin sdAb, part only) chain, part: EVQLVESGGGLVQPGGSLTLSCVASGNTSSINAMAWYRRAPGKQRELVAGISSDGSKVYADSVKGRFTISRDNAKNSVYLQMNSLRAEDTAVYYCYYFRTVSGSSMRYWGQGTLVTVSSGGGGSGGGSGGGGSGGGSHHHHHH
8.9	anti-DLL3 trispecific protein 2A06 (protein, part only; not given: CD3 binder and albumin binder, part only) chain, part: EVQLVESGGGLVQPGGSLTLSCVASGSTSSRNAMGWYRRAPGKQRELVAGISSDGSKVTADSVKGRFTISRDNAKNSVYLQMNSLRAEDTAVYYCYYFRTRSGSSMRYWGQGTLVTVSSGGGGSGGGSGGGGSGGGSHHHHHH
8	anti-DLL3 trispecific protein 2A01 (protein, part only; not given: anti-CD3 fragment and anti-albumin sdAb, part only) chain, part: EVQLVESGGGLVQPGGSLTLSCVASGSTSSINAMGWYRRAPGKQRELVAGISSDGSKVVADSVKGRFTISRDNAKNSVYLQMNSLRAEDTAVYYCYYFRTLSGSSMRYWGQGTLVTVSSGGGGSGGGSGGGGSGGGSHHHHHH
8	anti-DLL3 trispecific protein 3H06 (protein, part only; not given: anti-CD3 and anti-albumin domains, part only) chain, part: EVQLVESGGGLVQPGGSLTLSCAASGSSVSQLSMAWYRQAPGKKRELVAGISADGSTDYFDSVKGRFTISRDNAKNSVYLQMNSLRAEDTAVYYCYAYRWTTRGTYWGQGTLVTVSSGGGGSGGGSGGGGSGGGSHHHHHH
8.2	anti-DLL3 trispecific protein 3C05 (protein, part only; not given: anti-CD3 and anti-albumin domains, part only) chain, part: EVQLVESGGGLVQPGGSLTLSCVASGTSVSFLSMAWYRQAPGKKRELVAGISADGSTTYIDSVKGRFTISRDNAKNSVYLQMNSLRAEDTAVYYCYAYRWTTRRTYWGQGTLVTVSSGGGGSGGGSGGGGSGGGSHHHHHH
8.6	anti-DLL3 trispecific protein 3H010 (protein, part only; not given: anti-CD3 and anti-albumin domains, part only) chain, part: EVQLVESGGGLVQPGGSLTLSCAASGSSVSFLSMAWYRQAPGKKRELVAGISADGSTAYIDSVKGRFTISRDNAKNSVYLQMNSLRAEDTAVYYCYAYRWTTRRTYWGQGTLVTVSSGGGGSGGGSGGGGSGGGSHHHHHH
8.6	anti-DLL3 trispecific protein 4D04 (protein, part only; not given: anti-CD3 fragment and anti-albumin sdAb, part only) chain, part: EVQLVESGGGLVQPGGSLTLSCAASGSSVSFLSIAWYRQAPGKKRELVAGISKDGSTDYIDSVKGRFTISRDNAKNSVYLQMNSLRAEDTAVYYCYAYRWTTRMTYWGQGTLVTVSSGGGGSGGGSGGGGSGGGSHHHHHH
8.8	anti-DLL3 trispecific protein 3G04 (protein, part only; not given: CD3 binder and albumin binder, part only) chain, part: EVQLVESGGGLVQPGGSLTLSCVASGTSVSFLSMAWYRQAPGKKRELVAGISADGSTIYIDSVKGRFTISRDNAKNSVYLQMNSLRAEDTAVYYCYAYRWTTRRTYWGQGTLVTVSSGGGGSGGGSGGGGSGGGSHHHHHH
8.9	anti-DLL3 trispecific protein 4H08 (protein, part only; not given: anti-CD3 fragment and anti-albumin sdAb, part only) chain, part: EVQLVESGGGLVQPGGSLTLSCAASGSSVKFLSMAWYRQAPGKKRELVAGISADGSTDYVDSVKGRFTISRDNAKNSVYLQMNSLRAEDTAVYYCYAYRWSTRYTYWGQGTLVTVSSGGGGSGGGSGGGGSGGGSHHHHHH
8.3	anti-DLL3 trispecific protein 4C05 (protein, part only; not given: anti-CD3 and anti-albumin domains, part only) chain, part: EVQLVESGGGLVQPGGSLTLSCAASGSSVSNLSMAWYRQAPGKKRELVAGISADGSTAYIDSVKGRFTISRDNAKNSVYLQMNSLRAEDTAVYYCYAYRWTTRRTYWGQGTLVTVSSGGGGSGGGSGGGGSGGGSHHHHHH
8.8	anti-DLL3 trispecific protein 4G09 (protein, part only; not given: anti-CD3 fragment and anti-albumin domain, part only) chain, part: EVQLVESGGGLVQPGGSLTLSCAASGSRVSFLSMAWYRQAPGKKRELVAGISYDGSTDYIDSVKGRFTISRDNAKNSVYLQMNSLRAEDTAVYYCYAYRWTTRRTYWGQGTLVTVSSGGGGSGGGSGGGGSGGGSHHHHHH
8.1	anti-DLL3 trispecific protein 3A02 (protein, part only; not given: CD3 fragment and albumin sdAb, part only) chain, part: EVQLVESGGGLVQPGGSLTLSCAASGSSVSFLSLAWYRQAPGKKRELVAGISADGSTAYIDSVKGRFTISRDNAKNSVYLQMNSLRAEDTAVYYCYAYRWRTRYTYWGQGTLVTVSSGGGGSGGGSGGGGSGGGSHHHHHH
8.8	anti-DLL3 trispecific protein 4F09 (protein, part only; not given: anti-CD3 and anti-albumin domains, part only) chain, part: EVQLVESGGGLVQPGGSLTLSCAASGSRVSFLSMAWYRQAPGKKRELVAGISADGSTDYIESVKGRFTISRDNAKNSVYLQMNSLRAEDTAVYYCYAYRWTTRYTYWGQGTLVTVSSGGGGSGGGSGGGGSGGGSHHHHHH
8.2	anti-DLL3 trispecific protein 4F011 (protein, part only; not given: anti-CD3 and anti-albumin domains, part only) chain, part: EVQLVESGGGLVQPGGSLTLSCAASGSKVSFLSMAWYRQAPGKKRELVAGISADGSKDYIDSVKGRFTISRDNAKNSVYLQMNSLRAEDTAVYYCYAYRWTTRYTYWGQGTLVTVSSGGGGSGGGSGGGGSGGGSHHHHHH
